In US20020099177A1 (Human Genome Sciences, published 2002):

Target: T1, IL-1 receptor type I (Flag-IL-1RI) (human, UniProt P14778 18-569)
T1 construct: not shown: Flag tag from pCMV-1-Flag expression vector
T1 sequence (looked up): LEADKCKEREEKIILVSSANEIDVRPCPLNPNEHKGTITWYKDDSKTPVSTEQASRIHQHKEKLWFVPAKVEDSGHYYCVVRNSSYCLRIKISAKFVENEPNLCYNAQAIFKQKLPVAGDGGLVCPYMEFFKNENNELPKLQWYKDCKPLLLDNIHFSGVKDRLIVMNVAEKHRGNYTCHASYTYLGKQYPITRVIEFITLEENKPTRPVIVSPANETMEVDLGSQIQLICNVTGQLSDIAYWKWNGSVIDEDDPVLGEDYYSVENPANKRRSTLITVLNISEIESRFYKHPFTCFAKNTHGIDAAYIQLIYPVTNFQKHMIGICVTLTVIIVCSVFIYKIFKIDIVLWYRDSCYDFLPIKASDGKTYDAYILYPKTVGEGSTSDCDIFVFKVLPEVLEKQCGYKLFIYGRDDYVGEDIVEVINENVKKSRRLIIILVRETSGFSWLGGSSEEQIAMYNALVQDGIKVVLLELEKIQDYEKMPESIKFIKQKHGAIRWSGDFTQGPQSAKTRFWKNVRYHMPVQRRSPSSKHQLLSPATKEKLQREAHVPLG
Assay: coimmunoprecipitation from transfected 293/293T cell lysates
Protocol: The total amount of DNA was kept constant. 24-36 hours after transfection, cells were lysed in 0.5 ml buffer (1% NP40, 150 mM NaCl, 50 mM Tris, 1 mM EDTA and protease inhibitors cocktail). Cell lysates were adjusted to 0.7 M NaCl and the indicated antibodies were added for 1 to 4 hours. Immune complexes were precipitated by the addition of protein-G-Sepharose (Sigma). After extensive washing, the Sepharose heads were boiled in sample buffer and the eluted proteins fractionated by SDS-PAGE. Subsequent protein immunoblotting was performed as described (Chinnaiyan, A., et al., Cell 81:505-12 (1995)).

B1: IRAK-2 (97-590) (enzyme)
chain: PEIRCPIPAFPDSVKPEKPLAASVRKAEDEQEEGQPVRMATFPGPGSSPARAHQPAFLQPPEEDAPHSLRSDLPTSSDSKDFSTSIPKQEKLLSLAGDSLFWSEADVVQATDDFNQNRKISQGTFADVYRGHRHGKPFVFKKLRETACSSPGSIERFFQAELQICLRCCHPNVLPVLGFCAARQFHSFIYPYMANGSLQDRLQGQGGSEPLPWPQRVSICSGLLCAVEYLHGLEIIHSNVKSSNVLLDQNLTPKLAHPMAHLCPVNKRSKYTMMKTHLLRTSAAYLPEDFIRVGQLTKRVDIFSCGIVLAEVLTGIPAMDNNRSPVYLKDLLLSEIPSSTASLCSRKTGVENVMAKEICQKYLEKGAGRLPEDCAEALATAACLCLRRRNTSLQEVCGSVAAVEERLRGRETLLPWSGLSEGTGSSSNTPEETDDVDNSSLDASSSMSVAPWAGAATPLLPTENGEGRLRVIVGREADSSSEACVGLEPPQDVT
notes: Truncated IRAK-2 lacking the N-terminal domain (DD); also called IRAK-2 (97-590)-MyC; mutant version of IRAK-2 lacking the first 96 amino acid residues; not shown: C-terminal Myc(-His) tag from pCDNA3-MyC-His vector
B1: no binding.
